Like-named read-outs stand apart in the source and are kept apart here.
Experiment: Migration through porcine skin tissue under electric field (modified Franz apparatus)
Description: The effect of an electric field was explored on migration through the subcutis using fresh porcine abdominal skin tissue obtained from local abattoirs. To do this, a modified Franz apparatus was developed that could test up to 12 samples simultaneously (FIGS. 12A, 12B). Full-thickness porcine skin tissue plugs that were three cm in diameter were placed subcutis-down in individual wells over reservoirs containing cathodes below 2 ml of test solution. The device was then inverted to run the experiments.
Tissue and test solution were maintained at 37° C. using a heat lamp and monitored with a digital thermometer probe placed between the plexiglass plates, adjacent to the tissues. Anodes were inserted into conductive paste placed on the epidermal surface. Utilizing multiple electrophoresis power sources, 10V or 20V of electromotive potential was then run across each cathode-anode pair for one hour.
We tested the apparatus using a solution of bromophenol blue (BPB), a 0.67 kDa dye that appears blue above pH 4.6 and carries a negative charge near neutral pH similar to that of insulin. […]
One microscope slide was stained with H&E; an adjacent slide was stained with a Guinea pig polyclonal antibody (Ab) (Abcam ab7842), which was detected by a goat anti-Guinea pig polyclonal IgG H&L (Alexa Fluor® 594; Abcam ab150188).

| Molecule | migration through porcine skin layers with voltage applied | migration through porcine skin layers with voltage applied (10 V, 37° C., about one hour, test solution on subcutaneous surface) |
| --- | --- | --- |
| Cy5-insulin: human insulin conjugated to cyanine-5-NHS-ester fluorophore (P/N IS1-S5-1, Nanocs, Inc.) | migration of the fluorescence-tagged insulin through the full skin thickness | – |
| O=S1(=O)OC(c2cc(Br)c(O)c(Br)c2)(c2cc(Br)c(O)c(Br)c2)c2ccccc21 [bromophenol blue] | – | dye penetrated through the subcutis in voltage-treated tissue |
